Source: publication doi:10.1101/2020.12.30.424835 (bioRxiv, 2020)

Legend:
[1] = target: T1, Ctf3 complex (Ctf3, Mcm16, Mcm22), wild type, recombinant (yeast, UniProt Q12748;Q12262;P47167); experiment: fluorescence polarisation
[2] = target: T1, Ctf3 complex (Ctf3, Mcm16, Mcm22), wild …; experiment: pull-down

T1 sequence (Q12748 whole entry, chain 1 of 3): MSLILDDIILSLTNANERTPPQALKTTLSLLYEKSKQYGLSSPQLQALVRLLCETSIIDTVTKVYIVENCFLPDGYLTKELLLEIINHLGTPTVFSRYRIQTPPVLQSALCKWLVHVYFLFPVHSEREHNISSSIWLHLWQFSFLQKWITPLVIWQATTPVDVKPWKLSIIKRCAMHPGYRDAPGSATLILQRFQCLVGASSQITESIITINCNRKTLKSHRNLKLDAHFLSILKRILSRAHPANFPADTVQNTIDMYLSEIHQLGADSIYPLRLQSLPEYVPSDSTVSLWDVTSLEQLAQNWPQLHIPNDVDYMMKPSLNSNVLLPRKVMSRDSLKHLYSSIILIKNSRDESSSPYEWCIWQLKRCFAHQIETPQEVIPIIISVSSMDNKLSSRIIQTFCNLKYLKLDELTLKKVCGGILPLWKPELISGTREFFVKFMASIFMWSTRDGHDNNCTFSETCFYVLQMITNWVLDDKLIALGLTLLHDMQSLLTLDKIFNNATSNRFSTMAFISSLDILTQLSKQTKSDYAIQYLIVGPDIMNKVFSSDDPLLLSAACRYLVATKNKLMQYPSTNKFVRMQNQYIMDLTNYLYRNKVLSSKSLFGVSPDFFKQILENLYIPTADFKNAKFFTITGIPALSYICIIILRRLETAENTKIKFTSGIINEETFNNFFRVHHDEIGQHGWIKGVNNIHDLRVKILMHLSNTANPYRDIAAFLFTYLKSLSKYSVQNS
T1 sequence (Q12262 whole entry, chain 2 of 3): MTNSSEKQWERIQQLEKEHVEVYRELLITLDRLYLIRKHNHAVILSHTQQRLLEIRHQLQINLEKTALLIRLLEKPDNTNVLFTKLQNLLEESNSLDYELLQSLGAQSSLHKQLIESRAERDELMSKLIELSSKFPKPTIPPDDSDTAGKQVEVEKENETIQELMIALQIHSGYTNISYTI
T1 sequence (P47167 whole entry, chain 3 of 3): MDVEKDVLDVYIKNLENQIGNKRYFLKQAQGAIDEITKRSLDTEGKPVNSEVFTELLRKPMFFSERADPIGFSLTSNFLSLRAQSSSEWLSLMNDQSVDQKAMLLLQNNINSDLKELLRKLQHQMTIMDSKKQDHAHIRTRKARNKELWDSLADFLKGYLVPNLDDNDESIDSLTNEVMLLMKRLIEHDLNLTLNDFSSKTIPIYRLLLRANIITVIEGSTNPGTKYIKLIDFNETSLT

Row | Kd [1] | binding result [2] | Binder
1 | ~900 nM | – | DDSDVNLIGSS (fITC-AHA on the N-terminus) [FITC-Ulp2-KIM peptide (fITC-AHA-DDSDVNLIGSS; Ulp2-927-937)]
2 | – | binds | DDSDVALIGSS (domain or fragment) [GST-Ulp2-927-937 N932A]
3 | – | binds | ADSDVNLIGSS (domain or fragment) [GST-Ulp2-KIM 1DA-1 (minimal KIM, D927A)]
4 | – | binds | DDSDVNLIGSS (domain or fragment) [GST-Ulp2-927-937 (minimal Ulp2-KIM, wild type)]
